# Measured values published in IntAct's records for PubMed 21139566.
# B1: Structural maintenance of chromosomes protein 3 (Saccharomyces cerevisiae), P47037 (parent)
# chain: MYIKRVIIKGFKTYRNETIIDNFSPHQNVIIGSNGSGKSNFFAAIRFVLSDDYSNLKREERQGLIHQGSGGSVMSASVEIVFHDPDHSMILPSGVLSRGDDEVTIRRTVGLKKDDYQLNDRNVTKGDIVRMLETAGFSMNNPYNIVPQGKIVALTNAKDKERLQLLEDVVGAKSFEVKLKASLKKMEETEQKKIQINKEMGELNSKLSEMEQERKELEKYNELERNRKIYQFTLYDRELNEVINQMERLDGDYNNTVYSSEQYIQELDKREDMIDQVSKKLSSIEASLKIKNATDLQQAKLRESEISQKLTNVNVKIKDVQQQIESNEEQRNLDSATLKEIKSIIEQRKQKLSKILPRYQELTKEEAMYKLQLASLQQKQRDLILKKGEYARFKSKDERDTWIHSEIEELKSSIQNLNELESQLQMDRTSLRKQYSAIDEEIEELIDSINGPDTKGQLEDFDSELIHLKQKLSESLDTRKELWRKEQKLQTVLETLLSDVNQNQRNVNETMSRSLANGIINVKEITEKLKISPESVFGTLGELIKVNDKYKTCAEVIGGNSLFHIVVDTEETATLIMNELYRMKGGRVTFIPLNRLSLDSDVKFPSNTTTQIQFTPLIKKIKYEPRFEKAVKHVFGKTIVVKDLGQGLKLAKKHKLNAITLDGDRADKRGVLTGGYLDQHKRTRLESLKNLNESRSQHKKILEELDFVRNELNDIDTKIDQVNGNIRKVSNDRESVLTNIEVYRTSLNTKKNEKLILEESLNAIILKLEKLNTNRTFAQEKLNTFENDLLQEFDSELSKEEKERLESLTKEISAAHNKLNITSDALEGITTTIDSLNAELESKLIPQENDLESKMSEVGDAFIFGLQDELKELQLEKESVEKQHENAVLELGTVQREIESLIAEETNNKKLLEKANNQQRLLLKKLDNFQKSVEKTMIKKTTLVTRREELQQRIREIGLLPEDALVNDFSDITSDQLLQRLNDMNTEISGLKNVNKRAFENFKKFNERRKDLAERASELDESKDSIQDLIVKLKQQKVNAVDSTFQKVSENFEAVFERLVPRGTAKLIIHRKNDNANDHDESIDVDMDAESNESQNGKDSEIMYTGVSISVSFNSKQNEQLHVEQLSGGQKTVCAIALILAIQMVDPASFYLFDEIDAALDKQYRTAVATLLKELSKNAQFICTTFRTDMLQVADKFFRVKYENKISTVIEVNREEAIGFIRGSNKFAEV
# partner: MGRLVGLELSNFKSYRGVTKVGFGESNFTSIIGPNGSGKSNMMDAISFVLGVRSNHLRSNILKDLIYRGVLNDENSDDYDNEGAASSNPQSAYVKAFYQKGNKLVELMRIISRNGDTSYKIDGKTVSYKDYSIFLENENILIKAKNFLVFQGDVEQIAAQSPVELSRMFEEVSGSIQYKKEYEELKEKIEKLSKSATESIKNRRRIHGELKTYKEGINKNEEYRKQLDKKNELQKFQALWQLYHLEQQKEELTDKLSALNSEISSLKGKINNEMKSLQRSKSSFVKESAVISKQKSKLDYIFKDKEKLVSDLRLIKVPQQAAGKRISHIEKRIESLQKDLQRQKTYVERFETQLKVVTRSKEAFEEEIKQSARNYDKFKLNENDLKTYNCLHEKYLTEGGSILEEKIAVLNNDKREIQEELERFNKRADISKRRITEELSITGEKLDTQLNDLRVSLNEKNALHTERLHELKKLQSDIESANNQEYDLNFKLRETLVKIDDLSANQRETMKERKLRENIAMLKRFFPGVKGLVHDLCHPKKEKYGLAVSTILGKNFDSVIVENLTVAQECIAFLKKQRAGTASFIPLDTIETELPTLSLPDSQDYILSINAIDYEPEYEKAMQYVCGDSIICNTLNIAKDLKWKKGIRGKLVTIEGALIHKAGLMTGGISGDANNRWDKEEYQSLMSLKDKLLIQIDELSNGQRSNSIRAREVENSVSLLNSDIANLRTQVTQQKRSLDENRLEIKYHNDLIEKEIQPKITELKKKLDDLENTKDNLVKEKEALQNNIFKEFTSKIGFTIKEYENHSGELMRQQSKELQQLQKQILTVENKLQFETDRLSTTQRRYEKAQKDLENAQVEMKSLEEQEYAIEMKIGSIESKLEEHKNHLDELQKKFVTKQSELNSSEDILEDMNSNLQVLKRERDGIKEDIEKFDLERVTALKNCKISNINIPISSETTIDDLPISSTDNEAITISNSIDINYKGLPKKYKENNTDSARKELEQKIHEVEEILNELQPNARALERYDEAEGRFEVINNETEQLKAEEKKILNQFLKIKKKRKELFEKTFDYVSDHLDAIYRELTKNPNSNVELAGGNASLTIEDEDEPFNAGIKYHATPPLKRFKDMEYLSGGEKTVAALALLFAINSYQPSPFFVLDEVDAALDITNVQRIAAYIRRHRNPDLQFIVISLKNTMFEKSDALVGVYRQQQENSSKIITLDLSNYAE
# B2: Structural maintenance of chromosomes protein 1 (Saccharomyces cerevisiae), P32908 (parent)
# chain: B1 partner
# partner: B1 chain
# Variants of: B1
# Details: with smc1_yeast SMC1, P32908
row,Variant,effect of a mutation on the interaction
1,R665A,decreasing interaction
2,K668A,decreasing interaction
3,R669A,decreasing interaction

# Variants of: B2
# Details: with smc3_yeast SMC3, P47037
row,Variant,effect of a mutation on the interaction
1,K554D,decreasing interaction
2,K661D,decreasing interaction

# Variants of: B2
# Details: with smc3_yeast SMC3, P47037
# Remark: another data set of the same source
row,Variant,effect of a mutation on the interaction
1,M665R,disrupting interaction
